# T1: CD19 (UniProt P15391 20-556, limits assumed)
# T1 sequence (looked up): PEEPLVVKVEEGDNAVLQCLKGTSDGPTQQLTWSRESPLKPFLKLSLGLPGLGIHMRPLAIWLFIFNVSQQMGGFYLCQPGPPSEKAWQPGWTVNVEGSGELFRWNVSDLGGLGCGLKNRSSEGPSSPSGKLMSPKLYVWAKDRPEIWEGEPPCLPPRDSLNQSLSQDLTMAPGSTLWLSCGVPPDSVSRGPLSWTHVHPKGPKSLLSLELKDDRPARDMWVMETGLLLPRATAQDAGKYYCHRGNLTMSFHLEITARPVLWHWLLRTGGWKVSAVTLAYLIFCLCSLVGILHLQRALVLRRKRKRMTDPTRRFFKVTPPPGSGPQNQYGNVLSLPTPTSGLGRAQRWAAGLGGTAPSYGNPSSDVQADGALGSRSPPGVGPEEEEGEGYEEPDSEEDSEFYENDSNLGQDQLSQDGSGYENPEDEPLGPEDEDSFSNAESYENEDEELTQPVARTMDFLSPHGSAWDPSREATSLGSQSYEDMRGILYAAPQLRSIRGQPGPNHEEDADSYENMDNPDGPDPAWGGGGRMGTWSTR
# B1: hBU12 co-conjugate (2 drugs on 1 ADC) (antibody, V domains shown)
# VH: QVQLQESGPGLVKPSQTLSLTCTVSGGSISTSGMGVGWIRQHPGKGLEWIGHIWWDDDKRYNPALKSRVTISVDTSKNQFSLKLSSVTAADTAVYYCARMELWSYYFDYWGQGTLVTVSS
# VL: EIVLTQSPATLSLSPGERATLSCSASSSVSYMHWYQQKPGQAPRLLIYDTSKLASGIPARFSGSGSGTDFTLTISSLEPEDVAVYYCFQGSVYPFTFGQGTKLEIKR
# Biological target: T1, CD19
# Experiment: cell-based or functional assay
binder,measurement,value
B1,"Co-Conjugate IC50 (ng/mL), cytotoxicity on Granta-519 cells",3 ng/mL
same,"Co-Conjugate IC50 (ng/mL), cytotoxicity on SU-DHL-16 cells",0.2 ng/mL

# Source: patent publication US20200129639A1 (Seagen, published 2020)
